Test: protease stability score; higher = more stable; yeast display proteolysis, trypsin and chymotrypsin;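 further: relative to predicted unfolded state with 0 unfolded-like and 1 meaning tenfold more protease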

Row | Sequence | protease stability score
1 | DEWERLTEVMIRIFEEIVHTGDERVWEEMADPHVKVHIDGVHFHGREDLLYLLRKMGANVFDLKRSDIQGEKVYLDIQTEFNGQKRDSRFLIVKFNGRWLLESISIH | 1.47
2 | SEDERFWKKALDDLLDTIRTGDEHKFREMMDPNVRVHIGDKHFHGREQASEQVVRLGVDHIELRRVDFQGDYLEIHGHLRVNGRETRIHFVLLKIDGRWVVKEVRQE | 2.21
3 | SEERSRVLHYLSLFIHFLETGDWKALYELMDPDVRIHVGDFELHGRHIFVRHLRDLGIKHVEESIRVRRMILIDGVIHMDGHLERHLIVGDKRVDERHEVHEVILKVDGKWFVHSIHVK | 1.14
4 | DEDREHVKWMIEKEIHAWRTGDEDELRKMLDPNVKFEQGDKRIHGREILMERMRKLGADHVEFQLHDIELQGEKVLLFIELRIHVNGRDIRLEIIIYLDKVNGQWHVRHYEIR | 0.745
5 | DEDFDIVKHIFDVYIDAILTGDFRTLERNIDPDAKLHFNGREYHGWEIVVKFMLEIRVHDVQYKTMHIYDGRVELHGRNDGVIDGQKTETDTKIIMVKIDGRWHVRHIRVG | 1.33
6 | SEDEEYVEHMIRLVIRSLWTGDEHLLHRLIDPHARAEVNGQEFHGREEVLDILMRIRDELGVDHIELKDFELQGDKLILYSQNNVGDKHFHIIYELTKINGRWRIHRVFIELR | 1.7
7 | TEEKHMVLKIMEQVLQKWVTGDEDVLDHLLDPDDRLHLLQGDKFVEYHGWEEANKAWNEMRITHIELHDIRAQGDKVTSDGTLDGHFNGRRTRVRVRVHLIIVNGRLKEVELQLH | 0.924
8 | DEEHQHSLARTLATALRTGDPEKMKDLADKDVKVVVGDKHIKGRKDAKKWAKDWRDRYDHAQVDDVNVQGENVRIVMNVEVDGHNVVVVMTAIIDGDQVKNVKVTARNEEQEKKMKK | 0.252
9 | DETTELVHEVWRVHLESLMTGDFDKFHELADPNAKVDVHYDGRRDDNHGREKLSHQIKRILQEWRVTIRINREDAIGNKLHVDSDLRVNYDGVEIRVRLLSIIVVVNGRFKSIEYHVL | 1.29
10 | DHDEHDADRAVKWFLEDLRTGDEQLNERQADPHVRNDFNGVEIHGREEFLKHLSKLSNELGIKHLHVRHHRVYDGRLELHIELRFDGKTITLIIIKLKVNGRWYVESMHVH | 0.128
11 | DEDRREVQRFIESVVHAIRTGDWRRILELADPNTRLDFDGKVFHGMHVSVKRIIEELEKVKGLRIKDMTTDSVNIYNGVVELDGTLDLEIGDYESHVSAKFVLLKFNGRWFIHEESTR | 1.59
12 | DEKTEIVSRIMIVFFHALLTGDWETLKKNADPHVKLEAEGRKSHGMEELVRWIHEEIKRIPGIRFELKRYDVQGDKVEIEGRVRINGVEFELIIESVIVDGKLKSIREEWR | 1.41
13 | DERSEEVRRLIKNLVDFFHTGDWRLIQDLADPNVRTDVNGVEHHGREEVTKMLEELVRRFRNVRLHIRDHHIQGEWVIVILEFHVGDKSFELHMFALKINGRWTLTSIEVR | 2.37
14 | HEEERDAEKLIRIWYHYLVTGDEERLLELLDPSTRMDINGVTHHGMEIVRDALHDLLRHLGVKVFRDIHIESVEIQGEKVITRMHVLFEVDGQELRIDSILFSHKINGKWLIEMHSKK | 1.23
15 | DEMKEEQRKFSELAIHNFETGDEDTFHRLADPHTKVEINGVLHIGRETVTTFFSHYWELFGVDHFEEKDRKIEIQGEKVITRIRGIIHFNGRQTDVLIRLEIRKINGRWILHSFTIEHI | 0.579
16 | DEEEHNLKKFLEIFLKAERTGDEEALRRMLDPNTKFVVGDKTYHGREEYIRWLNEIRIHRTEDKHIEVQGNKLHMDTRRRMEIDGREIDTEVRLELEVINGVVKLIIVDIR | 1.86
17 | DEKTEISEELLKIFVDLLQTGDEDIFQDMMDPRAQVHVNGKRIHGREHIIHWFREAHRHLGVKHTHIHRVEIQGEKVYIDGRLHYNGRDFNTHLIFDVINGRVKSMELRQH | 1.09
18 | DEDEKILEKYIRIETRALKTGNEEERENLADPNTKIDVNGVKIHGMEDWSRKLLKWLRDHGATNDLKFERIKFQGEKVILDGRLHVHYNGVDLEIETIIYFTKYNGKWILKSMEVI | 0.229

Row | Sequence | protease stability score
19 | DERERIAEEILRRIAKLMETGDENEMEHLMDPNVRLVFNGVRLHGMEDWEREMRRFDHIKIHTNEIQHIRLQGEKVDNDVRVDLLYHQGDKSWKIDTRTHYHFQKVNGKWIVREIIIE | 1.39
20 | DEDRKHREHLSELFQKLWLTGDWRTLWRLLDPHVRLEVLIDGKRIEKIGRENISEMLHRFLEFLGVDHRELHDMEIQGDKVHLDERIHYNGREQKLHIEFKFINGRMHEIKIRYE | 1.58
21 | QEDRERAERIINELMENELTGDEDRLRELADPRVRVEYDGQEHIGMELRSTWIKEMRFDHIHVDIDEFEFQGNKIHIKARFHIDVNINGRKRRYTVETFLVMKKINGVWFIKDIVFH | 1.36
22 | DHEEKLSEDISRFLLELYLTGDPERLAKNADPNTKLIIDINGRHEDIHGREYIYKWSLDWFRKAGVTRVEFDLRSMDVQGEKAVIHGVNRVGDKDRHMTEIWIVVNGKLKEVRVKLE | 1.28
23 | DEDRQDAEYALRLWLETWVTGDEDTLLRLMDPHYRLEIGEYHRHGRENVVTFLRFLVEHLGIKHTHVEVHDLDSQGDKVRAHTTLHNKYNGVELVIDSEIILTKINGRWYFKSMHFG | 1.2
24 | DEVDHMIELVTRLFIHAVLTGDEKILRDLMDPHVRVHVDGKKLHGWKEFIDWLREELERYDHFHFRVHHYNVVNGRVHADGNLDVHFNGRKHHITTDLRLIIWDGRIKTVDIRHH | 1.75
25 | DEDERQLEESLKHWIKALETGNEEEVMRLLDPNVKIEIGDKDLHGMEAEEERLRKVKGMRIEFRLRDMKHIGDKIDIDGELRLNFNGVDIKSKIIIFAHKFNGRWINRRIIVL | 1.83
26 | NEDDKHAKHLLDLLIRTFITGDEHTLMNLLDPHTRYHQGEKELHGMEMLLHVERHHGATVHHFHVKSVRVIGDKIQFHVHVDHTIDGKRIRTDIDLWMEKVDGRWIVREIRIH | 0.815
27 | DEDHEVFKRINDLFHESLETGDERVLERLMDPNTRIEYGDKRVHGREELLRHMREMGIDHFNVEDTTVINGVAMLDVSIVVNGKVFKLEFYVNKVNGQWHLEHVEIREI | 0.661
28 | SDIDNEADNLLRELSEVHQTGDWKTLLELADPNVQLIVNGRDLHGWEHLARRFTELRIHHVDHRIKHIHSYDGRVDLDGRLHYDGEINGRRDILHHEVSVHTKKIDGRWIISNIQIN | -0.21
29 | TEHDQVLLQLSQELFHSVLTGDFDLWTKLMDPNVRVHIISEDEELHRVGWETMIRWLRRFLEELRIHSMRIRRVHHVDGVAHEDGELDGIVDGQRVITRVTLHVITINGRWHSVHLERL | 0.801
30 | SEEDEADHELVQWMLEILQTGDEETFRTFADPSTRHISHIDGKEMHIHGRESASEVLLTTWKELGVDVFHLHQYRYFNGRVDIEFELHQGNKTIELHFHYQIINGRLKRIEIRVHHE | 1.14
31 | DEEEKDAIMLSEISTHLMSTGDEHETSHNADPNTRLEYGDFEFHGREEFIKIWVEQMEKVKGMTIRLHSIHVQGDKAVSHVKIHVNGVDFHIIYIAEKFNGRWQLRSSIVI | 1.06
32 | DERERELKQALDLFKDIIKTGDEEALTRLIDPNAKMRVNGQDIHGWHHFILMMIRIYLHMGIKHIIDHRLHIQGDYLHLDTEVHVDGRSIRYHIVLFKFDGRWHLESSSSI | 1.6
33 | DEELHHQERLLREFLHAEFTGDEDKLRHLADPRTRSDLEFENVEIVLHGMDEHVKWWEELGFKIDEMRISRIDVVGNFIILDTRVRGHINGQETHFEHHIIINTINGKIHSIRVHTK | 0.735
34 | SEDEEFAKHASEIMSRILETGNEEETNRMMDPNVRLDWNGQDHVGREDVLRFRKLIIEILGIERIKVELHDVKTVNGRVHTDIIVNINGQEYRLRVFMTKVNGRWHVKFMEFE | 1.7
35 | SEDEKIAHKVHRLMFESLRTGDEEFLRRMLDPNARFVVNGQDLVGMEFLDHTLREMRVREIRWRSSDVEIQGDKIINHSKVHSRFDQGEKETHVEVHIIIIYTKIDGQWHVKSVIIEYK | 1.12
36 | DEEKRFHHKLLRLFLESFLTGDWRLWYKLADPNARFHAPNHESHGREEVVEMIFKWLKQYDHVEIRIHDVRYYNGQIRMDVELHFRQGDKETSTKLDLILIVVDGRITEVHFDVR | 0.916

— the NTF2 design screens of Basanta et al. (2020)
